According to patent US20160024513, “MAIZE STRESS RELATED TRANSCRIPTION FACTOR 18 AND USES THEREOF” (PIONEER HI-BRED INTERNATIONAL INC., published 2016):

B1: RAB17 promoter DRE fragment (dsDNA)
DNA 1: TAAATTCAGCCTGACCGACCGCCTGCATTGAATA
DNA 2: TATTCAATGCAGGCGGTCGGTCAGGCTGAATTTA
B2: RAB17 DRE mutant fragment (dsDNA)
DNA 1: TAAATTCAGCCTGTTTTTTCGCCTGCATTGAATA
DNA 2: TATTCAATGCAGGCGAAAAAACAGGCTGAATTTA

Experiments:
Settings in all cases: tags: 20 aa N-terminal tag incl; 6xHis (pET28)
[1] = target: ZmSRTF18 (SPL VAR4) (C71S) (Zea mays, C71S); assay: EMSA; with or without DTT; strong and specific also with 300 mM KCl and salmon DNA
Procedure: (§1) In gel-shift assays, also known as electrophoretic mobility shift assays (EMSA), DNA with bound protein will traverse the gel more slowly than DNA without bound protein. Thus, gel shift assays indicate whether a protein binds to a specific DNA fragment. The gel shift assays of FIG. 6 were performed using the Molecular Probes™ EMSA Kit (E33075), which provides background information, materials, and methods for gel shift experiments. The assays were done in the presence or in the absence of DTT (dithiothreitol), as it is not certain which condition most accurately reflects the in vivo condition. DNA was stained with SYBR® Green according to the manufacturer's protocol.
(§2) To determine whether DNA binding was specific, and to examine binding of the less severely truncated proteins ZmSRTF18-del (ALT5) (SEQ ID NO: 26) and ZmSRTF18-del (ALT6) (SEQ ID NO: 27), further gel shift experiments were performed in the presence of DTT with the same 34 bp DNA fragment, or with the corresponding fragment that had the DRE element ACCGAC mutated to TTTTTT. Conditions were also optimized to reduce nonspecific binding by adding 300 mM KCl and sheared salmon DNA.

ZmSRTF18 (SPL VAR4) [2] = target: ZmSRTF18 (SPL VAR4) (Zea mays); assay: as above
Procedure: as §1, §2

ZmSRTF18-del = ZmSRTF18-del (Zea mays); assay: EMSA; no DTT; did not appear to bind
Procedure: as §1

ZmSRTF18-del (ALT2) = ZmSRTF18-del (ALT2) (Zea mays); assay: EMSA; with or without DTT; obvious gel shift
Procedure: as §1, §2

ZmSRTF18-del (ALT6) [3] = target: ZmSRTF18-del (ALT6) (Zea mays); assay: EMSA; DTT, 300 mM KCl, sheared salmon DNA; strong specific binding
Procedure: as §1, §2

ZmSRTF18-del (ALT6) [4] = target: ZmSRTF18-del (ALT6) (Zea mays); assay: EMSA; DTT, 300 mM KCl, salmon DNA; binding to DRE stated specific versus this mutant
Procedure: as §1, §2

[5] = target: ZmSRTF18 (SPL VAR4) (C71S) (Zea mays, C71S); assay: as above
Procedure: as §1, §2

ZmSRTF18 (SPL VAR4) [6] = target: ZmSRTF18 (SPL VAR4) (Zea mays); assay: as above
Procedure: as §1, §2

ZmSRTF18 (SPL VAR4) (Zea mays), sequence (chain, as listed by the source): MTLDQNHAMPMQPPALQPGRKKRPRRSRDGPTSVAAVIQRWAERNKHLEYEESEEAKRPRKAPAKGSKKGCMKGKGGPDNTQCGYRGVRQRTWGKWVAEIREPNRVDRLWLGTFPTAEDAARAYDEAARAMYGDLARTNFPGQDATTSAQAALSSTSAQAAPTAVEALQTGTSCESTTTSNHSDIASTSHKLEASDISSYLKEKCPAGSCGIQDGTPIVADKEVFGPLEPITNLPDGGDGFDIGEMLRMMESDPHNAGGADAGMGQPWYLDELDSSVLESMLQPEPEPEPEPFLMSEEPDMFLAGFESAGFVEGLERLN
ZmSRTF18 (SPL VAR4) (C71S) (Zea mays, C71S), sequence (chain, as listed by the source C71S | C71S C71S): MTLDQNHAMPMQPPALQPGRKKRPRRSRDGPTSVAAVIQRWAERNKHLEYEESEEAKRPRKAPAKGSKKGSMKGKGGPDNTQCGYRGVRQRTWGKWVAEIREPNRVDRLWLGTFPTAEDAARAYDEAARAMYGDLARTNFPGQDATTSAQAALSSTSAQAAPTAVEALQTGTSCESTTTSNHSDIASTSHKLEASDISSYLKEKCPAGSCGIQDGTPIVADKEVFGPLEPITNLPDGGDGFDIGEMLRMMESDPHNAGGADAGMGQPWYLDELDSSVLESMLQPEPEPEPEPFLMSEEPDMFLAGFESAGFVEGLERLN
ZmSRTF18-del (ALT6) (Zea mays), sequence (chain, as listed by the source): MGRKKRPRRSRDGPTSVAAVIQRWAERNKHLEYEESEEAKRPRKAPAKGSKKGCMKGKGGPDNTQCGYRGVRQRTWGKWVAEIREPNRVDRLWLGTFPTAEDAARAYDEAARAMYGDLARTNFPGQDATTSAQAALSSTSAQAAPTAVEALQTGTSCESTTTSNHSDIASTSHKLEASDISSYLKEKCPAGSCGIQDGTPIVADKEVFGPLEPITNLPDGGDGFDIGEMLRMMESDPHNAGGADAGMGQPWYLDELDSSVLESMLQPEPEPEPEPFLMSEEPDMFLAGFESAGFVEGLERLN
ZmSRTF18-del (Zea mays), sequence (chain, as listed by the source): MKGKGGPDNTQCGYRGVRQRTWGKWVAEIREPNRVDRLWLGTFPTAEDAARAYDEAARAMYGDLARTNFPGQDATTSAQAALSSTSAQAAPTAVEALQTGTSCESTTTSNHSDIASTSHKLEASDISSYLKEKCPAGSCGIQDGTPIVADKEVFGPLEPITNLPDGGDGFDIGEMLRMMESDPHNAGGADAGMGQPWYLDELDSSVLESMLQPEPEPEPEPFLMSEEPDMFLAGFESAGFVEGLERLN
ZmSRTF18-del (ALT2) (Zea mays), sequence (chain, as listed by the source): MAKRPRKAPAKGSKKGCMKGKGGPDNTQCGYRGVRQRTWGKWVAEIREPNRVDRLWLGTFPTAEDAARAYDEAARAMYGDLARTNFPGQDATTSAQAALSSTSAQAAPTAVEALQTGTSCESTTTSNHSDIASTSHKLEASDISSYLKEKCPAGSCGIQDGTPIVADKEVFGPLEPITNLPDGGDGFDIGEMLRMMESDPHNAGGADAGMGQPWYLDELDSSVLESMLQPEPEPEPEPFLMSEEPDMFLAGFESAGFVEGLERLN

Row | Binder | binding result [1] | binding result (ZmSRTF18 (SPL VAR4) [2]) | binding result (ZmSRTF18-del) | binding result (ZmSRTF18-del (ALT2)) | binding result (ZmSRTF18-del (ALT6) [3]) | binding result (ZmSRTF18-del (ALT6) [4]) | binding result [5] | binding result (ZmSRTF18 (SPL VAR4) [6])
1 | B1 | binds | binds | no binding | binds | binds | – | – | –
2 | B2 | – | – | – | – | – | no binding | no binding | no binding
